Experimental data published in patent publication US20250073311A1, “DOSAGE REGIME” (ZEALAND PHARMA A/S, priority 2021, published 2025).
Values belong to the binder of their own block, whether it stands above or below them. Numbered stars: 1 amine (or outer) side, 2 acyl side, 3 side chain; on linkers, the order of the positions; unused ones are H or OH. Square brackets hold non-standard residues; d marks the D form. Side chains are listed from the residue outwards. * marks the point of attachment. C18 diacid = O=C(O)CCCCCCCCCCCCCCCCC(=O)*; γGlu = O=C(O)[C@H](CCC(=O)[*:2])N[*:1]; Palmitoyl = CCCCCCCCCCCCCCCC(=O)*; Aib = CC(C)(N)C(=O)O; βAla = NCCC(=O)O

Experiments:
[1] = target: T1, human GLP-2 receptor (hGLP2-R) (human, UniProt O95838); test: cell-based or functional assay
T1 sequence: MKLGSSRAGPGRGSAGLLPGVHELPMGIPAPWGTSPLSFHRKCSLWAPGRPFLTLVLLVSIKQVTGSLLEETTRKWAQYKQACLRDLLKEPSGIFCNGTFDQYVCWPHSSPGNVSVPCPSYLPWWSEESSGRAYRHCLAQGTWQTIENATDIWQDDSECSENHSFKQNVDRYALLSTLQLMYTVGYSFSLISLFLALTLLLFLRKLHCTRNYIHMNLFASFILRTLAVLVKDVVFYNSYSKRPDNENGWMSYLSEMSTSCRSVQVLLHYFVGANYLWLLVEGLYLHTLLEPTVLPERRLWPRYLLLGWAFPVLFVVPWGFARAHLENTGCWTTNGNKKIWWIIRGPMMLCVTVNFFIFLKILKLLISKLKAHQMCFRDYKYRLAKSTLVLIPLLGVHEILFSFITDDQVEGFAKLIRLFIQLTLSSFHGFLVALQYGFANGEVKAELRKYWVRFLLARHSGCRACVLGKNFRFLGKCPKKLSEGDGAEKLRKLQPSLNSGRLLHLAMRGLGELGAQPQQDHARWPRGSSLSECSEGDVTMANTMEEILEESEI

[2] = target: human glucagon-like peptide 1 receptor (GLP-1R) (human, UniProt P43220); test: cell-based or functional assay

B1: Compound 26 (peptide)
peptide: H-H[Aib]EGSFTSELATILDK([γGlu-C18 diacid])QAARDFIAWLIHHKITD-OH
SMILES: CC[C@H](C)[C@H](NC(=O)[C@H](Cc1ccccc1)NC(=O)[C@H](CC(=O)O)NC(=O)[C@H](CCCNC(=N)N)NC(=O)[C@H](C)NC(=O)[C@H](C)NC(=O)[C@H](CCC(N)=O)NC(=O)[C@H](CCCCNC(=O)CC[C@H](NC(=O)CCCCCCCCCCCCCCCCC(=O)O)C(=O)O)NC(=O)[C@H](CC(=O)O)NC(=O)[C@H](CC(C)C)NC(=O)[C@@H](NC(=O)[C@@H](NC(=O)[C@H](C)NC(=O)[C@H](CC(C)C)NC(=O)[C@H](CCC(=O)O)NC(=O)[C@H](CO)NC(=O)[C@@H](NC(=O)[C@H](Cc1ccccc1)NC(=O)[C@H](CO)NC(=O)CNC(=O)[C@H](CCC(=O)O)NC(=O)C(C)(C)NC(=O)[C@@H](N)Cc1c[nH]cn1)[C@@H](C)O)[C@@H](C)O)[C@@H](C)CC)C(=O)N[C@@H](C)C(=O)N[C@@H](Cc1c[nH]c2ccccc12)C(=O)N[C@@H](CC(C)C)C(=O)N[C@H](C(=O)N[C@@H](Cc1c[nH]cn1)C(=O)N[C@@H](Cc1c[nH]cn1)C(=O)N[C@@H](CCCCN)C(=O)N[C@H](C(=O)N[C@H](C(=O)N[C@@H](CC(=O)O)C(=O)O)[C@@H](C)O)[C@@H](C)CC)[C@@H](C)CC
EC50 GLP-2 (nM), cAMP AlphaScreen [1]: 0.59 nM | EC50 GLP-1 (nM), cAMP AlphaScreen [2]: 0.29 nM

B2: Compound 27 (peptide)
peptide: H-H[Aib]EGSFTSELATILDK([γGlu-C18 diacid])QAARDFIAWLIYHKITD-OH
SMILES: CC[C@H](C)[C@H](NC(=O)[C@H](Cc1ccccc1)NC(=O)[C@H](CC(=O)O)NC(=O)[C@H](CCCNC(=N)N)NC(=O)[C@H](C)NC(=O)[C@H](C)NC(=O)[C@H](CCC(N)=O)NC(=O)[C@H](CCCCNC(=O)CC[C@H](NC(=O)CCCCCCCCCCCCCCCCC(=O)O)C(=O)O)NC(=O)[C@H](CC(=O)O)NC(=O)[C@H](CC(C)C)NC(=O)[C@@H](NC(=O)[C@@H](NC(=O)[C@H](C)NC(=O)[C@H](CC(C)C)NC(=O)[C@H](CCC(=O)O)NC(=O)[C@H](CO)NC(=O)[C@@H](NC(=O)[C@H](Cc1ccccc1)NC(=O)[C@H](CO)NC(=O)CNC(=O)[C@H](CCC(=O)O)NC(=O)C(C)(C)NC(=O)[C@@H](N)Cc1c[nH]cn1)[C@@H](C)O)[C@@H](C)O)[C@@H](C)CC)C(=O)N[C@@H](C)C(=O)N[C@@H](Cc1c[nH]c2ccccc12)C(=O)N[C@@H](CC(C)C)C(=O)N[C@H](C(=O)N[C@@H](Cc1ccc(O)cc1)C(=O)N[C@@H](Cc1c[nH]cn1)C(=O)N[C@@H](CCCCN)C(=O)N[C@H](C(=O)N[C@H](C(=O)N[C@@H](CC(=O)O)C(=O)O)[C@@H](C)O)[C@@H](C)CC)[C@@H](C)CC
EC50 GLP-2 (nM), cAMP AlphaScreen [1]: 1.1 nM | EC50 GLP-1 (nM), cAMP AlphaScreen [2]: 0.45 nM

B3: Compound 28 (peptide)
peptide: H-H[Aib]EGSFTSELATILDK([γGlu-C18 diacid])QAARDFIAWLILHKITD-OH
SMILES: CC[C@H](C)[C@H](NC(=O)[C@H](Cc1ccccc1)NC(=O)[C@H](CC(=O)O)NC(=O)[C@H](CCCNC(=N)N)NC(=O)[C@H](C)NC(=O)[C@H](C)NC(=O)[C@H](CCC(N)=O)NC(=O)[C@H](CCCCNC(=O)CC[C@H](NC(=O)CCCCCCCCCCCCCCCCC(=O)O)C(=O)O)NC(=O)[C@H](CC(=O)O)NC(=O)[C@H](CC(C)C)NC(=O)[C@@H](NC(=O)[C@@H](NC(=O)[C@H](C)NC(=O)[C@H](CC(C)C)NC(=O)[C@H](CCC(=O)O)NC(=O)[C@H](CO)NC(=O)[C@@H](NC(=O)[C@H](Cc1ccccc1)NC(=O)[C@H](CO)NC(=O)CNC(=O)[C@H](CCC(=O)O)NC(=O)C(C)(C)NC(=O)[C@@H](N)Cc1c[nH]cn1)[C@@H](C)O)[C@@H](C)O)[C@@H](C)CC)C(=O)N[C@@H](C)C(=O)N[C@@H](Cc1c[nH]c2ccccc12)C(=O)N[C@@H](CC(C)C)C(=O)N[C@H](C(=O)N[C@@H](CC(C)C)C(=O)N[C@@H](Cc1c[nH]cn1)C(=O)N[C@@H](CCCCN)C(=O)N[C@H](C(=O)N[C@H](C(=O)N[C@@H](CC(=O)O)C(=O)O)[C@@H](C)O)[C@@H](C)CC)[C@@H](C)CC
EC50 GLP-2 (nM), cAMP AlphaScreen [1]: 0.51 nM | EC50 GLP-1 (nM), cAMP AlphaScreen [2]: 0.36 nM

B4: Compound 29 (peptide)
peptide: H-H[Aib]EGSFTSELATILDK([γGlu-C18 diacid])QAARDFIAWLIKHKITD-OH
SMILES: CC[C@H](C)[C@H](NC(=O)[C@H](Cc1ccccc1)NC(=O)[C@H](CC(=O)O)NC(=O)[C@H](CCCNC(=N)N)NC(=O)[C@H](C)NC(=O)[C@H](C)NC(=O)[C@H](CCC(N)=O)NC(=O)[C@H](CCCCNC(=O)CC[C@H](NC(=O)CCCCCCCCCCCCCCCCC(=O)O)C(=O)O)NC(=O)[C@H](CC(=O)O)NC(=O)[C@H](CC(C)C)NC(=O)[C@@H](NC(=O)[C@@H](NC(=O)[C@H](C)NC(=O)[C@H](CC(C)C)NC(=O)[C@H](CCC(=O)O)NC(=O)[C@H](CO)NC(=O)[C@@H](NC(=O)[C@H](Cc1ccccc1)NC(=O)[C@H](CO)NC(=O)CNC(=O)[C@H](CCC(=O)O)NC(=O)C(C)(C)NC(=O)[C@@H](N)Cc1c[nH]cn1)[C@@H](C)O)[C@@H](C)O)[C@@H](C)CC)C(=O)N[C@@H](C)C(=O)N[C@@H](Cc1c[nH]c2ccccc12)C(=O)N[C@@H](CC(C)C)C(=O)N[C@H](C(=O)N[C@@H](CCCCN)C(=O)N[C@@H](Cc1c[nH]cn1)C(=O)N[C@@H](CCCCN)C(=O)N[C@H](C(=O)N[C@H](C(=O)N[C@@H](CC(=O)O)C(=O)O)[C@@H](C)O)[C@@H](C)CC)[C@@H](C)CC
EC50 GLP-2 (nM), cAMP AlphaScreen [1]: 0.29 nM | EC50 GLP-1 (nM), cAMP AlphaScreen [2]: 0.31 nM

B5: Compound 30 (peptide)
peptide: H-H[Aib]EGSFTSELATILDK([γGlu-C18 diacid])QAARDFIAWLIRHKITD-OH
SMILES: CC[C@H](C)[C@H](NC(=O)[C@H](Cc1ccccc1)NC(=O)[C@H](CC(=O)O)NC(=O)[C@H](CCCNC(=N)N)NC(=O)[C@H](C)NC(=O)[C@H](C)NC(=O)[C@H](CCC(N)=O)NC(=O)[C@H](CCCCNC(=O)CC[C@H](NC(=O)CCCCCCCCCCCCCCCCC(=O)O)C(=O)O)NC(=O)[C@H](CC(=O)O)NC(=O)[C@H](CC(C)C)NC(=O)[C@@H](NC(=O)[C@@H](NC(=O)[C@H](C)NC(=O)[C@H](CC(C)C)NC(=O)[C@H](CCC(=O)O)NC(=O)[C@H](CO)NC(=O)[C@@H](NC(=O)[C@H](Cc1ccccc1)NC(=O)[C@H](CO)NC(=O)CNC(=O)[C@H](CCC(=O)O)NC(=O)C(C)(C)NC(=O)[C@@H](N)Cc1c[nH]cn1)[C@@H](C)O)[C@@H](C)O)[C@@H](C)CC)C(=O)N[C@@H](C)C(=O)N[C@@H](Cc1c[nH]c2ccccc12)C(=O)N[C@@H](CC(C)C)C(=O)N[C@H](C(=O)N[C@@H](CCCNC(=N)N)C(=O)N[C@@H](Cc1c[nH]cn1)C(=O)N[C@@H](CCCCN)C(=O)N[C@H](C(=O)N[C@H](C(=O)N[C@@H](CC(=O)O)C(=O)O)[C@@H](C)O)[C@@H](C)CC)[C@@H](C)CC
EC50 GLP-2 (nM), cAMP AlphaScreen [1]: 0.38 nM | EC50 GLP-1 (nM), cAMP AlphaScreen [2]: 0.31 nM

Continued, values first:

EC50 GLP-2 (nM), cAMP AlphaScreen [1]: 0.24 nM | EC50 GLP-1 (nM), cAMP AlphaScreen [2]: 0.27 nM
B6: Compound 31 (peptide)
peptide: H-H[Aib]EGSFTSELATILDK([γGlu-C18 diacid])QAARDFIAWLISHKITD-OH
SMILES: CC[C@H](C)[C@H](NC(=O)[C@H](Cc1ccccc1)NC(=O)[C@H](CC(=O)O)NC(=O)[C@H](CCCNC(=N)N)NC(=O)[C@H](C)NC(=O)[C@H](C)NC(=O)[C@H](CCC(N)=O)NC(=O)[C@H](CCCCNC(=O)CC[C@H](NC(=O)CCCCCCCCCCCCCCCCC(=O)O)C(=O)O)NC(=O)[C@H](CC(=O)O)NC(=O)[C@H](CC(C)C)NC(=O)[C@@H](NC(=O)[C@@H](NC(=O)[C@H](C)NC(=O)[C@H](CC(C)C)NC(=O)[C@H](CCC(=O)O)NC(=O)[C@H](CO)NC(=O)[C@@H](NC(=O)[C@H](Cc1ccccc1)NC(=O)[C@H](CO)NC(=O)CNC(=O)[C@H](CCC(=O)O)NC(=O)C(C)(C)NC(=O)[C@@H](N)Cc1c[nH]cn1)[C@@H](C)O)[C@@H](C)O)[C@@H](C)CC)C(=O)N[C@@H](C)C(=O)N[C@@H](Cc1c[nH]c2ccccc12)C(=O)N[C@@H](CC(C)C)C(=O)N[C@H](C(=O)N[C@@H](CO)C(=O)N[C@@H](Cc1c[nH]cn1)C(=O)N[C@@H](CCCCN)C(=O)N[C@H](C(=O)N[C@H](C(=O)N[C@@H](CC(=O)O)C(=O)O)[C@@H](C)O)[C@@H](C)CC)[C@@H](C)CC

EC50 GLP-2 (nM), cAMP AlphaScreen [1]: 0.46 nM | EC50 GLP-1 (nM), cAMP AlphaScreen [2]: 0.38 nM
B7: Compound 32 (peptide)
peptide: H-H[Aib]EGSFTSELATILDK([βAla-Palmitoyl])QAARDFIAWLQQHKITD-OH
SMILES: CCCCCCCCCCCCCCCC(=O)NCCC(=O)NCCCC[C@H](NC(=O)[C@H](CC(=O)O)NC(=O)[C@H](CC(C)C)NC(=O)[C@@H](NC(=O)[C@@H](NC(=O)[C@H](C)NC(=O)[C@H](CC(C)C)NC(=O)[C@H](CCC(=O)O)NC(=O)[C@H](CO)NC(=O)[C@@H](NC(=O)[C@H](Cc1ccccc1)NC(=O)[C@H](CO)NC(=O)CNC(=O)[C@H](CCC(=O)O)NC(=O)C(C)(C)NC(=O)[C@@H](N)Cc1c[nH]cn1)[C@@H](C)O)[C@@H](C)O)[C@@H](C)CC)C(=O)N[C@@H](CCC(N)=O)C(=O)N[C@@H](C)C(=O)N[C@@H](C)C(=O)N[C@@H](CCCNC(=N)N)C(=O)N[C@@H](CC(=O)O)C(=O)N[C@@H](Cc1ccccc1)C(=O)N[C@H](C(=O)N[C@@H](C)C(=O)N[C@@H](Cc1c[nH]c2ccccc12)C(=O)N[C@@H](CC(C)C)C(=O)N[C@@H](CCC(N)=O)C(=O)N[C@@H](CCC(N)=O)C(=O)N[C@@H](Cc1c[nH]cn1)C(=O)N[C@@H](CCCCN)C(=O)N[C@H](C(=O)N[C@H](C(=O)N[C@@H](CC(=O)O)C(=O)O)[C@@H](C)O)[C@@H](C)CC)[C@@H](C)CC
